Source: US20160002321A1 (HER MAJESTY THE QUEEN IN RIGHT OF CANADA AS REPRESENTED BY …, published 2016)

T1: recombinant lethal factor (rLF) (Bacillus anthracis, UniProt P15917 34-809)
T1 sequence: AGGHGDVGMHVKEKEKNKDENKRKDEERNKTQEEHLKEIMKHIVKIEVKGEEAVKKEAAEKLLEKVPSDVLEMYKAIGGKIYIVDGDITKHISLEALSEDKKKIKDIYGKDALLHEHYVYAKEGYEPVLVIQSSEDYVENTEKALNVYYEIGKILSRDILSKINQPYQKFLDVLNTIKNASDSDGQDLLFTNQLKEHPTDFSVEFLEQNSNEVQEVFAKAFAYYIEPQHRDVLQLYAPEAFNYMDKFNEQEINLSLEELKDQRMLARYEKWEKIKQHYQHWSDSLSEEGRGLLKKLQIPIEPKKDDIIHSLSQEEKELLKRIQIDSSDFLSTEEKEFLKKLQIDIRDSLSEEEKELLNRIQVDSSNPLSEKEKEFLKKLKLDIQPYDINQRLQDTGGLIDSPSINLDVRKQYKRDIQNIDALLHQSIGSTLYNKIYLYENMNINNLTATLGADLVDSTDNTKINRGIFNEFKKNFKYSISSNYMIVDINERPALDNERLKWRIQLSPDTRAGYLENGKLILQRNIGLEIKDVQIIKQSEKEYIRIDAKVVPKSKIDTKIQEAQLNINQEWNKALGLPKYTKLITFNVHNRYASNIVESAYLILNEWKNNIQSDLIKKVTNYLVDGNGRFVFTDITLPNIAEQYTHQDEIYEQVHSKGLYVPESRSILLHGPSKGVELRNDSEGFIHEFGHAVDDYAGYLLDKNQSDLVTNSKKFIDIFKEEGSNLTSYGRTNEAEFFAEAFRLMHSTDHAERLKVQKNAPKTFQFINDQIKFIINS

B1: F20G77 (antibody)
chain 1: EVQLEESGPELVSPGVSVKISCEGSGYTFTDYAMHWVKQSHARGLEWIGVIGSYSGNAHHNLNFKDKATMTVDKSSSTAYMELARLTSDDSAIYYCAY
chain 2: ELVMTQSPLSLPVSLGDQASISCRSSQSIIHSNGDTFLEWFLQKPGQSPKLLIYKVSNRFSGVPDRFSGSGSGTDFTLKISRVEAEDLGVYYCFQGSHVPLTFGAGTKLELK
B2: F20G76 (antibody, V domains shown)
VH: EVQLEESGPELVKPGASVKVSCKASGYSFTDYNMYWVKQSHGTSLEWIGVIDPNNGVTSYNQKFKDKATLTADKSSSTAFMHLNSLTSEDSAVYYCSRGGLDYWGQGTTLTVSS
VL: ELVMTQSPLSLPVSLGDQASISCRSSQSIIHSNGDTFLEWFLQKPGQSPKLLIYKVSNRFSGVPDRFSGSGSGTDFTLKISRVEAEDLGVYYCFQGSHVPLTFGAGTKLELKR

How the values were obtained:
[1] = biological target: recombinant anthrax protective antigen (rPA) (Bacillus anthracis, UniProt P13423 30-764); assay: SPR, Biacore 2000, rPA on a CM5 chip, MAb in solution
[2] = biological target: T1, recombinant lethal factor (rLF); assay: Western immunoblot, 2 µg denatured protein
[3] = biological target: bovine serum albumin (BSA) (bovine, UniProt P02769 25-607); assay: endpoint ELISA, antigen coated at 100 ng/well
[4] = biological target: chymotrypsin digested rPA (47 and 37 kDa fragments) (Bacillus anthracis, UniProt P13423 30-343; P13423 344-764); assay: Western immunoblot of chymotrypsin digested rPA
Chain of chymotrypsin digested rPA (47 and 37 kDa fragments) (P13423 30-343 limits assumed, chain 1 of 2): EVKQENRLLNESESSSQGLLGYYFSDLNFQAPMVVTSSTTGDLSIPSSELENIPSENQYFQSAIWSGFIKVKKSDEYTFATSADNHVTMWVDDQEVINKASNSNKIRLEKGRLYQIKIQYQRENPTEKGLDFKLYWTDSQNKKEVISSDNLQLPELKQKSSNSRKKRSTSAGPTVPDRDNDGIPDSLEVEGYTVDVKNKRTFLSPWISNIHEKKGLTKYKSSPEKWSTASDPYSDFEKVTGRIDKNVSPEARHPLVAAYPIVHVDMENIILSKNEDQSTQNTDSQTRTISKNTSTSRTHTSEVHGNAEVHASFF
Chain of chymotrypsin digested rPA (47 and 37 kDa fragments) (P13423 344-764 limits assumed, chain 2 of 2): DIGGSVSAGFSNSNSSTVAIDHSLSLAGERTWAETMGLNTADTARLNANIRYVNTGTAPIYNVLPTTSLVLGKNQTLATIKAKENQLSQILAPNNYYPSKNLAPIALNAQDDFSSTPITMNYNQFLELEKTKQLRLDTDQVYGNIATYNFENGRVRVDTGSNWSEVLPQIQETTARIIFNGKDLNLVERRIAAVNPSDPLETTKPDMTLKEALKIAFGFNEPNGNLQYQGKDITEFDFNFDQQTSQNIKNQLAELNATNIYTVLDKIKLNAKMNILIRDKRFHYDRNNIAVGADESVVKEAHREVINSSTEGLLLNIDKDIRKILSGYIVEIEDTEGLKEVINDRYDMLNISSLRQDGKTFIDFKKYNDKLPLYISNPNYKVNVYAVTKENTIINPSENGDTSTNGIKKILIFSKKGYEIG

Chain of recombinant anthrax protective antigen (rPA) (P13423 30-764): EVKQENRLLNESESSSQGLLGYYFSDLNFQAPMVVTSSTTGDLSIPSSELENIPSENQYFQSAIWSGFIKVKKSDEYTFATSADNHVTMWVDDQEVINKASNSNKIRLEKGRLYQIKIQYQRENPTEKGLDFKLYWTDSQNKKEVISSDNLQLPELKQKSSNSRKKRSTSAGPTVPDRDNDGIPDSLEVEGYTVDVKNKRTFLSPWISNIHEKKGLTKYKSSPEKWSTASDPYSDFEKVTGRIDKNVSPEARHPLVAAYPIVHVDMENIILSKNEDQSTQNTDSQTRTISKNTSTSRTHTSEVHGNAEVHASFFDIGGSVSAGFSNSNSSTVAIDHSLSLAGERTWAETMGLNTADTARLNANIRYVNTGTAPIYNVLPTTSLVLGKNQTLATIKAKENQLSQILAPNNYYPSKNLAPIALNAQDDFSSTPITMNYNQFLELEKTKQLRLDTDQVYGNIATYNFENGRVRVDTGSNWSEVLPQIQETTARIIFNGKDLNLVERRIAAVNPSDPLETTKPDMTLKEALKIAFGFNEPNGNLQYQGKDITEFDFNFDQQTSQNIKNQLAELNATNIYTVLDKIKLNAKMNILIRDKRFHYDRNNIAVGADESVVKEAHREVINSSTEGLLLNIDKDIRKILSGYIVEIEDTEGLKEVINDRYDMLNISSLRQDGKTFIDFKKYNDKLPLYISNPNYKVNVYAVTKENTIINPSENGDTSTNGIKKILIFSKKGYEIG
Chain of bovine serum albumin (BSA) (P02769 25-607 limits assumed): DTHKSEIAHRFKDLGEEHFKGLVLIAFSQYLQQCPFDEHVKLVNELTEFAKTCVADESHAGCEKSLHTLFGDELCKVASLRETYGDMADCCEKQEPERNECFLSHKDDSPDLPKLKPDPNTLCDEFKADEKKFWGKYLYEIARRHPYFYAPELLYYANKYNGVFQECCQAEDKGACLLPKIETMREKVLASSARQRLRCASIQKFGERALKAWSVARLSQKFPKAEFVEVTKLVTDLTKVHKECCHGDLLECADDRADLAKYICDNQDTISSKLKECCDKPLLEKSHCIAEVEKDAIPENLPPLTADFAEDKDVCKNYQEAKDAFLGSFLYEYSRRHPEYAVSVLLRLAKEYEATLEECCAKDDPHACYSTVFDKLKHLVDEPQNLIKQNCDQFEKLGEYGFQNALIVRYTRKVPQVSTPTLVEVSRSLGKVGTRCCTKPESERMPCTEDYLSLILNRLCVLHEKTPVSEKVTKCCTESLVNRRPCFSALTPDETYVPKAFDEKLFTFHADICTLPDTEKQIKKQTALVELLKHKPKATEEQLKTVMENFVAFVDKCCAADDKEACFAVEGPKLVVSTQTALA

Binder | Kd [1] | koff [1] | kon [1] | binding result [2] | binding result [3] | binding result [4]
B1 | 0.46 nM | 1.4e-06 s⁻¹ | 3100 M⁻¹ s⁻¹ |  |  | 
B2 | 18.5 nM | 6.8e-05 s⁻¹ | 4000 M⁻¹ s⁻¹ | no binding | no binding | no binding
